24 sequences from the supplement of paper PMC10899765 can be followed below.

Common to all, as to conditions: 20 nM; 72 h
Data set [1] has as its system MCF10A. In words: 5+ nucleoli phenotype percent effect (relative to siNT 0% and siKIF11 100%); higher = more cells with five or more nucleoli. How it is done: (§1)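 After 72 h, cells were fixed and stained with Hoechst and anti-fibrillarin, and nucleoli per nucleus were counted with CellProfiler. Values are plate-adjusted percent effect for the one-nucleolus and 5+ nucleoli phenotypes, normalised to siNT (0%) and to the positive controls siNOL11 or siKIF11 (100%), as the mean of biological triplicates. Percent viability is the nuclei count relative to siNT.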

The subject of data set [2] is MCF10A. The experiment in a line: one-nucleolus phenotype percent effect (relative to siNT 0% and siNOL11 100%); higher = more cells with one nucleolus (ribosome biogenesis inhibition). How it is done: as §1
Data set [3] relates to MCF10A. The experiment in a line: percent viability (nuclei count relative to siNT); higher = more viable cells. How it is done: as §1

Turning to AGGCUGUGAUGCUCUCCUGAGCCC [hsa-miR-7974], the “5+ nucleoli phenotype percent effect” value in the data set on MCF10A [1] was -12%. Also, the “one-nucleolus phenotype percent effect” value in the data set with MCF10A [2] was found to be 30.5%. Besides, the percent viability with MCF10A [3] stood at 22.8%.

For the sequence UGGUGGGCCGCAGAACAUGUGC [hsa-miR-654-5p], the “5+ nucleoli phenotype percent effect” value in the data set on MCF10A [1] was -8.23%. Also, the “one-nucleolus phenotype percent effect” value in the data set with MCF10A [2] is 20.4%. The percent viability in the data set on MCF10A [3] is 31.2%.

Turning to “UAACCCUGUCCUCUCCCUCCCAG [hsa-miR-6732-3p]”, the “5+ nucleoli phenotype percent effect” value in the data set with MCF10A [1] amounted to 1.9%. Also, the “one-nucleolus phenotype percent effect” value in the data set with MCF10A [2] was -9.42%. Moreover, the percent viability in the data set with MCF10A [3] stood at 36.4%.

“CUCCUCCACAGCCCCUGCUCAU [hsa-miR-6792-3p]”: the “5+ nucleoli phenotype percent effect” value in the data set on MCF10A [1] was -21.5%. The “one-nucleolus phenotype percent effect” value in the data set on MCF10A [2] is -4.72%. Also, the percent viability in the data set on MCF10A [3] stood at 56.4%.

Take CAUAGCCCGGUCGCUGGUACAUGA [hsa-miR-3651]: the “5+ nucleoli phenotype percent effect” value in the data set with MCF10A [1] was -7.1%. In addition, the “one-nucleolus phenotype percent effect” value in the data set with MCF10A [2] was 17.1%. Moreover, in the data set on MCF10A [3], the percent viability worked out at 70%.

Take “UGAAGCUCUAAGGUUCCGCCUGC [hsa-miR-3928-5p]”: the “5+ nucleoli phenotype percent effect” value in the data set with MCF10A [1] is -19.2%. The “one-nucleolus phenotype percent effect” value in the data set on MCF10A [2] turned out to be 20.8%. For the same sequence, the percent viability with MCF10A [3] stood at 23.8%.

Turning to GUCCCUGAGUGUAUGUGGUG [hsa-miR-670], in the data set on MCF10A [1], the “5+ nucleoli phenotype percent effect” value is 48%. In addition, the “one-nucleolus phenotype percent effect” value with MCF10A [2] is -27.4%. Further, the percent viability in the data set with MCF10A [3] turned out to be 47.5%.

For AUUCUGCAUUUUUAGCAAGUUC [hsa-miR-544a], the “5+ nucleoli phenotype percent effect” value in the data set with MCF10A [1] was -31.2%. In addition, the “one-nucleolus phenotype percent effect” value with MCF10A [2] amounted to 5.39%. Also, the percent viability in the data set with MCF10A [3] is 26.6%.

Regarding ACAAGGUGUGCAUGCCUGACC [hsa-miR-4761-5p], in the data set with MCF10A [1], the “5+ nucleoli phenotype percent effect” value is -24.8%. Further, the “one-nucleolus phenotype percent effect” value in the data set on MCF10A [2] was determined as 53.7%. Further, the percent viability in the data set on MCF10A [3] was found to be 18.1%.

“UGUUGUCAUGUUUUUUCCCUAG [hsa-miR-6755-3p]”: in the data set with MCF10A [1], the “5+ nucleoli phenotype percent effect” value came to 34.6%. Also, the “one-nucleolus phenotype percent effect” value with MCF10A [2] is -6.42%. For the same sequence, in the data set with MCF10A [3], the percent viability is 26%.

Regarding UGGCAAACGUGGAAGCCGAGA [hsa-miR-4470], in the data set with MCF10A [1], the “5+ nucleoli phenotype percent effect” value is -21.5%. Also, in the data set with MCF10A [2], the “one-nucleolus phenotype percent effect” value amounted to 61%. Further, the percent viability in the data set on MCF10A [3] was 15.8%.

For the sequence “UUGUCUCUUGUUCCUCACACAG [hsa-miR-6818-3p]”, the “5+ nucleoli phenotype percent effect” value with MCF10A [1] stood at 16.4%. Besides, in the data set with MCF10A [2], the “one-nucleolus phenotype percent effect” value was -11.1%. Further, the percent viability in the data set on MCF10A [3] worked out at 57.7%.

Regarding CUGGUACAGGCCUGGGGGACAG [hsa-miR-150-3p], the “5+ nucleoli phenotype percent effect” value in the data set with MCF10A [1] was found to be 1.02%. For the same sequence, the “one-nucleolus phenotype percent effect” value with MCF10A [2] was 11%. For the same sequence, in the data set on MCF10A [3], the percent viability is 66.2%.

For the sequence “GUAGGGGAGGUUGGGCCAGGGA [hsa-miR-6824-5p]”, in the data set on MCF10A [1], the “5+ nucleoli phenotype percent effect” value came to 39.2%. Besides, the “one-nucleolus phenotype percent effect” value with MCF10A [2] is -25.3%. Moreover, the percent viability in the data set with MCF10A [3] turned out to be 78.1%.

Turning to GGUAGUGAGUUAUCAGCUAC [hsa-miR-6073], the “5+ nucleoli phenotype percent effect” value in the data set with MCF10A [1] stood at 18.3%. Further, the “one-nucleolus phenotype percent effect” value with MCF10A [2] was 2.63%. Also, in the data set on MCF10A [3], the percent viability was 71%.

As for “AGGUUGGGAUCGGUUGCAAUGCU [hsa-miR-92a-1-5p]”, the “5+ nucleoli phenotype percent effect” value in the data set on MCF10A [1] is -34%. Also, the “one-nucleolus phenotype percent effect” value with MCF10A [2] was 4.93%. In the data set on MCF10A [3], the percent viability was 17.4%.

On to CCUGCGAGUCUCCGGCGGUGG [hsa-miR-6068], for which the “5+ nucleoli phenotype percent effect” value with MCF10A [1] turned out to be 24.3%. Moreover, the “one-nucleolus phenotype percent effect” value in the data set on MCF10A [2] was -17.2%. Besides, in the data set on MCF10A [3], the percent viability amounted to 97.4%.

Regarding ACAGCCCAGCAGUUAUCACGGG [hsa-miR-5685], the “5+ nucleoli phenotype percent effect” value in the data set on MCF10A [1] is -0.657%. In addition, the “one-nucleolus phenotype percent effect” value in the data set on MCF10A [2] was -1.32%. In addition, in the data set on MCF10A [3], the percent viability is 57.8%.

As to “UCGGGCCUGGGGUUGGGGGAGC [hsa-miR-6749-5p]”, the “5+ nucleoli phenotype percent effect” value in the data set on MCF10A [1] stood at 21.9%. For the same sequence, the “one-nucleolus phenotype percent effect” value in the data set on MCF10A [2] is -10.1%. The percent viability with MCF10A [3] came to 37.7%.

Regarding ACUUGUAUGCUAGCUCAGGUAG [hsa-miR-643], the “5+ nucleoli phenotype percent effect” value with MCF10A [1] came to 68.8%. Further, the “one-nucleolus phenotype percent effect” value in the data set on MCF10A [2] was -31.1%. Moreover, the percent viability with MCF10A [3] stood at 165%.

For the sequence “AAGGGAGGAGGAGCGGAGGGGCCCU [hsa-miR-4739]”, the “5+ nucleoli phenotype percent effect” value in the data set with MCF10A [1] came to 4.78%. For the same sequence, the “one-nucleolus phenotype percent effect” value in the data set on MCF10A [2] was determined as 21.1%. In addition, in the data set with MCF10A [3], the percent viability is 19.6%.

For “CUCGGGAGGGCAUGGGCCAGGC [hsa-miR-6771-5p]”, the “5+ nucleoli phenotype percent effect” value with MCF10A [1] was -1.93%. In the data set on MCF10A [2], the “one-nucleolus phenotype percent effect” value is -0.506%. Besides, the percent viability in the data set with MCF10A [3] came to 50.5%.

On to “UUGGGGUGGAGGGCCAAGGAGC [hsa-miR-6819-5p]”, for which the “5+ nucleoli phenotype percent effect” value in the data set with MCF10A [1] was determined as 2.57%. Moreover, the “one-nucleolus phenotype percent effect” value in the data set with MCF10A [2] was 37.8%. In addition, the percent viability in the data set with MCF10A [3] was found to be 3.49%.

For the sequence UCCUGCCUUCCUCUGCACCAG [hsa-miR-6747-3p], in the data set with MCF10A [1], the “5+ nucleoli phenotype percent effect” value was -28.9%. For the same sequence, the “one-nucleolus phenotype percent effect” value in the data set on MCF10A [2] was determined as 16%. Besides, the percent viability with MCF10A [3] is 27%.
